Laboratory results published in patent publication US20160083711.

Target: T1, fluorogenic peptide (MCA)Lys-Lys-Pro-Ala-Glu-Phe-Phe-Ala-Leu-Lys(DNP)
T1 chain: KKPAEFFALK

B1: proCardosinB lacking the PSI region (pCBΔPSI) (protein)
chain: MVSNGGLLRVGLKKRKVDRLDQLRAHGVHMLGNARKDFGFRRTLRDSGSGIVALTNDRDTAYYGEIGIGTPPQNFAVIFDTGSSDLWVPSTKCDTSLACVIHPRYDSGDSSTYKGNGTTASIQYGTGAIVGFYSQDSVEVGDLVVEHQDFIETTEEDDTVFLKSEFDGILGLGFQEISAGKAVPVWYNMVNQGLVEEAVFSFWLNRNVDEEEGGELVFGGVDPNHFRGNHTYVPVTRKGYWQFEMGDVLIGDKSSGFCAGGCAAIADSGTSFFAGPTAIITQINQAIGAKGGGGSAESIVDCNGISSMPNIAFTIGSKLFEVTPEQYIYKVGEGEAATCISGFTALDIMSPQGPIWILGDMFMGPYHTVFDYGKLRVGFAEAV
Q: With B1 as the protein, how does the Km read?
A: Its Km is 8.7 µM.

Q: What about the VMax of the same protein?
A: The VMax was 2.15e-05 µmol/s.

Q: What about the kcat of the same protein?
A: Its kcat is 36.5 s⁻¹.

Q: What about the kcat/Km of the same protein?
A: The kcat/Km was 4.2e+06 M⁻¹ s⁻¹.
